Broadly, the EC50 (read off the curve) is the concentration that produces a half-maximal response. High values mean lower potency in that assay, low ones higher potency in that assay. As a reminder, the Kd is a measure of binding affinity in units of concentration. What is called koff is the rate constant with which the complex falls apart. Read a high koff as fast dissociation. As usually defined, the kon is the rate constant with which the complex forms. A lower kon goes with slower complex formation.

Assay [1] addresses T1, mouse CTLA4 in cells of Ctla4 m/m (WT) mice (mouse, UniProt P09793 36-223).
T1 construct: whole, on cells; also called murine Ctla-4
The experiment in a line: flow cytometry, intracellular staining of CTLA4 in spleen cells of Ctla4 m/m mice, gated on CD3+CD4+. (In general: A flow cytometer gives signals particle by particle.)

Assay [2] concerns the target T2, human CTLA-4Fc mutant protein M6 (human).
T2 construct: also called Mutant 6
Kind of assay: ELISA on coated target; binder 100 ng/ml. For orientation: ELISA stands for enzyme-linked immunosorbent assay.

Assay [3] addresses T3, mouse CTLA4-Fc fusion protein (mouse, UniProt P09793 36-162, limits assumed).
T3 construct: also called mCTLA4-Fc; mCTLA-4; not shown: Fc portion, not described
The experiment in a line: blocking ELISA: plate B7-2, biotinylated mouse CTLA4-Fc with the antibody, HRP-streptavidin; blocked ligand B7-2.

The target of assay [4] is T3, mouse CTLA4-Fc fusion protein. The experiment in a line: ELISA, binding to soluble mouse CTLA4-Fc (the legend gives no further details of the format).
For assay [5] the target is unchanged. Kind of assay: ELISA, plate-coated mCTLA4-Fc, biotinylated antibody.
For assay [6], the target named is T4, Control IgG1-Fc (human, UniProt P01857-1 99-330 = IgG part, limits assumed).
T4 construct: domain: Fc; also called hIg-Fc; hIgG
The experiment in a line: ELISA: hIgGFc coated on the plate (negative control), biotinylated antibody in solution, HRP-streptavidin, OD450.

Assay [7] addresses T5, huCTLA4 (antigen of the Octet experiments) (human, UniProt P16410 37-162, limits assumed).
T5 construct: Construct of the soluble antigen not described; also called the antigen
The experiment in a line: BLI (Octet Red96), antibody on anti-hIgG Fc biosensor, huCTLA4 in solution, 1:1 fit.

The target in assay [8] is T5, huCTLA4 (antigen of the Octet …). Kind of assay: BLI (Octet), purified 0.1 L material, replicate 2.
For assay [9] the target is unchanged. Kind of assay: BLI (Octet), purified 0.1 L material, replicate 1. For orientation: In BLI a coated tip is dipped into the sample, and binding shifts an interference pattern.
Assay [10] addresses T6, M12.
T6 construct: human CTLA-4Fc with clusters of murine Ctla-4 residues; also called CTLA-4Fc M12
Kind of assay: ELISA: CTLA-4Fc protein coated on the plate, biotinylated antibody in solution, HRP-streptavidin, OD450.

The target of assay [11] is T7, M14.
T7 construct: human CTLA-4Fc mutant; also called CTLA-4Fc M14
The description is as above.

Assay [12] deals with T8, M16.
T8 construct: human CTLA-4Fc mutant; also called CTLA-4Fc M16
T8 mutant human CTLA-4 extracellular domain fused to IgG1 Fc: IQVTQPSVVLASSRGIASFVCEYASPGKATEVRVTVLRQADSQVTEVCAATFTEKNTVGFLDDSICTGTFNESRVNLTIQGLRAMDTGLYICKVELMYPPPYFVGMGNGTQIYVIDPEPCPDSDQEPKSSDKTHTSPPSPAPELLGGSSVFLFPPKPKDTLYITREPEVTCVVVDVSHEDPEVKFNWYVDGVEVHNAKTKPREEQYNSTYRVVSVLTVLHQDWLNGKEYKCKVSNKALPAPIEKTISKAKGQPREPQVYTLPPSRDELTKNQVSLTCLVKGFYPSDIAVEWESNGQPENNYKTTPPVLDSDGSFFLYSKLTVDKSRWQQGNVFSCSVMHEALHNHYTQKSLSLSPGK
The description is as above.

Assay [13] concerns the target T4, Control IgG1-Fc. Kind of assay: ELISA: hIgGFc coated on the plate (negative control), biotinylated antibody in solution, HRP-streptavidin, OD450. The source holds these as a separate data set.
The target in assay [14] is T2, human CTLA-4Fc mutant protein M6. Kind of assay: ELISA on coated target; binder 10 ng/ml.
The target of assay [15] is T9, human CTLA-4Fc mutant protein M8 (human).
T9 construct: also called Mutant 8
The experiment in a line: ELISA on coated target; binder 1000 ng/ml.

Assay [16] has as its target T2, human CTLA-4Fc mutant protein M6. The experiment in a line: ELISA on coated target; binder 1000 ng/ml.
The target of assay [17] is T4, Control IgG1-Fc. Kind of assay: ELISA, plate-coated IgG1-Fc, biotinylated B7-1.

Residue numbers refer to the chain shown, from its start. Numbers in names are those of the source.

T5 sequence (P16410 37-162 limits assumed): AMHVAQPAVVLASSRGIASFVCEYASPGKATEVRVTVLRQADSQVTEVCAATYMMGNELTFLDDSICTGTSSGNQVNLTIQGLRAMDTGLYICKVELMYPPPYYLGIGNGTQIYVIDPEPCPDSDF

B1: chimeric L3D10 antibody (antibody, V domains shown)
VH: QVQLKESGPGLVAPSQSLSITCTVSGFSLTSYGLSWVRQPPGKGLEWLGVIWYDGNTNFHSALISRLTISKDNSKSQVFLELNSLQTDDTATYYCAKTEGHYYGSNYGYYALDYWGQGTSVTVSS
VL: DIQMTQSPASLSVSVGETVTITCRASENIYSNLAWYQQKQGKSPQLLVYAATNLADGVPSRFSGSGSGTQYSLKINSLQSEDFGTYFCQHLWGTPYTFGGGTKLEIKR
notes: Biotinylated in the ELISAs; also called Chimeric Parental; PP4629
On to B1, for which, in assay [1], the binding result is “no binding”.

B2: chimeric L3D10 antibody (antibody, V domains shown)
VH: B1 VH
VL: B1 VL
modifications: biotinylated (sites not given)
notes: Mouse L3D10 variable regions on human IgG1 with M252Y, S254T, T256E, S298A, E333A, K334A; Used biotinylated in the ELISA; also called Biotin-L3D10; PP4629
In turn, B2 registered an OD450 in assay [2] of 3.03 OD.

B3: anti-mouse CTLA4 mAb 9D9 (antibody, V domains shown)
VH: EAKLQESGPVLVKPGASVKMSCKASGYTFTDYYMNWVKQSHGKSLEWIGVINPYNGDTSYNQKFKGKATLTVDKSSSTAYMELNSLTSEDSAVYYCARYYGSWFAYWGQGTLITVST
VL: DIVMTQTTLSLPVSLGDQASISCRSSQSIVHSNGNTYLEWYLQKPGQSPKLLIYKVSNRFSGVPDRFSGSGSGTDFTLKISRVEAEDLGVYYCFQGSHVPYTFGGGTKLEIK
With B3, in [3], the “IC50 (read off the curve)” value is approximately 1 µg/mL. The concentration giving a half-maximal response (EC50 (read off the curve)) in assay [4] was approximately 0.4 µg/mL.

B4: Humanized HC1 + LC2 (PP4631) (antibody, IgG1, V domains shown)
VH: QVQLQESGPGLVKPSETLSLTCTVSGFSLTSYGLSWIRQPPGKGLEWIGYIWYDGNTNFHPSLKSRVTISKDTSKNQFSLKLSSVTAADTAVYYCAKTEGHYYGSNYGYYALDYWGQGTSVTVSS
VL: DIQMTQSPSSLSASVGDRVTITCRASENIYSNLAWYQQKQGKAPKLLLYAATNLQDGVPSRFSGSGSGTDYTLTISSLQPEDFATYFCQHLWGTPYTFGQGTKLEIK
notes: Humanized L3D10; also called H3106 + L3107; HL12
B4: the values for the binding result in [5] and in assay [6] were “no binding” and “no binding (tested: 0.2 µg/mL)”, respectively.

B5: Humanized HC1 + LC1 (PP4630) (antibody, IgG1, V domains shown)
VH: B4 VH
VL: B4 VL with Q40P, D56S, Y71F, F87Y, Q100G
notes: Humanized L3D10; also called H3106 + L3106
In assay [7], B5 registered a Kd of 13 nM, an off-rate constant (koff) of 0.0018 s⁻¹ and a kon of 130000 M⁻¹ s⁻¹.

B6: Humanized HC3 + LC3 (PP4638) (antibody, IgG1, V domains shown)
VH: B4 VH with P61S, S62P, K71V, S120L
VL: B4 VL with Q40P, L48I, N53S, D56S, Y71F, F87Y, Q100G, L104V
notes: Humanized L3D10; also called H3108 + L3108
Turning to B6, the Kd in assay [7] is 8.1 nM; in [8], 11 nM; in [9] it was 9.4 nM. Besides, the results for the off-rate constant (koff) in [7], in [8] and in [9] were 0.0023 s⁻¹, 0.0022 s⁻¹ and 0.0021 s⁻¹, respectively. Also, the on-rate (kon) in [7] was 290000 M⁻¹ s⁻¹; in assay [8] it was 210000 M⁻¹ s⁻¹; in assay [9], 230000 M⁻¹ s⁻¹.

B7: Humanized HC2 + LC2 (PP4634) (antibody, IgG1, V domains shown)
VH: B4 VH with P61S, N76S, F78V, S120L
VL: B4 VL
notes: Humanized L3D10; also called H3107 + L3107
In [7], B7 gave a Kd of 6.8 nM, a koff of 0.0019 s⁻¹ and a kon of 280000 M⁻¹ s⁻¹.

B8: Humanized HC2 + LC3 (PP4635) (antibody, IgG1, V domains shown)
VH: B4 VH with P61S, N76S, F78V, S120L
VL: B4 VL with Q40P, L48I, N53S, D56S, Y71F, F87Y, Q100G, L104V
notes: Humanized L3D10; also called H3107 + L3108
Consider B8, for which, in assay [7], the Kd amounted to 8.4 nM, the koff came out at 0.002 s⁻¹ and the association rate constant (kon) turned out to be 240000 M⁻¹ s⁻¹.

B9: Humanized HC3 + LC1 (PP4636) (antibody, IgG1, V domains shown)
VH: B4 VH with P61S, S62P, K71V, S120L
VL: B4 VL with Q40P, D56S, Y71F, F87Y, Q100G
notes: Humanized L3D10; also called H3108 + L3106
As to B9, in [7], binding was characterised by a dissociation constant (Kd) of 8.7 nM, the koff is 0.0022 s⁻¹ and the on-rate constant (kon) worked out at 250000 M⁻¹ s⁻¹.

B10: Humanized HC1 + LC3 (PP4632) (antibody, IgG1, V domains shown)
VH: B4 VH
VL: B4 VL with Q40P, L48I, N53S, D56S, Y71F, F87Y, Q100G, L104V
notes: Humanized L3D10; also called H3106 + L3108
B10: in assay [7], the Kd was 12 nM, the off-rate constant (koff) came out at 0.0019 s⁻¹ and the kon came out at 160000 M⁻¹ s⁻¹.

B11: Humanized HC3 + LC2 (PP4637) (antibody, IgG1, V domains shown)
VH: B4 VH with P61S, S62P, K71V, S120L
VL: B4 VL
notes: Humanized L3D10; also called H3108 + L3107; HL32
Consider B11, for which the binding result in assay [10] is “no binding (tested: 0.2 µg/mL)”; in assay [11], “no binding (tested: 0.2 µg/mL)”; in [12], “no binding (tested: 0.2 µg/mL)”; in assay [13], “no binding (tested: 0.2 µg/mL)”; in assay [5], “no binding”.

B12: Humanized HC2 + LC1 (PP4633) (antibody, IgG1, V domains shown)
VH: B4 VH with P61S, N76S, F78V, S120L
VL: B4 VL with Q40P, D56S, Y71F, F87Y, Q100G
notes: Humanized L3D10; also called H3107 + L3106
With B12, in assay [7], binding was characterised by a dissociation constant (Kd) of 7.1 nM, the koff was found to be 0.0014 s⁻¹ and the on-rate (kon) came out at 200000 M⁻¹ s⁻¹.

B13: human B7-1 Fc fusion protein (Fc fusion, UniProt P33681 35-242, looked up)
chain: VIHVTKEVKEVATLSCGHNVSVEELAQTRIYWQKEKKMVLTMMSGDMNIWPEYKNRTIFDITNNLSIVILALRPSDEGTYECVVLKYEKDAFKREHLAEVTLSVKADFPTPSISDFEIPTSNIRRIICSTSGGFPEPHLSWLENGEELNAINTTVSQDPETELYAVSSKLDFNMTTNHSFMCLIKYGHLRVNQTFNWNTTKQEHFPDN
modifications: biotinylated (sites not given)
notes: Control protein; Used biotinylated in soluble phase; also called Biotin-HB7-1; Biotin-hB7-1; not shown: Fc portion
Turning to B13, the OD450 in assay [14] was 0.279 OD; in [15], 3.63 OD; in assay [16] it was 3.41 OD.

B14: human B7-1 Fc fusion protein (Fc fusion, UniProt P33681 35-242, looked up)
chain: B13 chain
notes: also called B7-1 Ig; B7-1 Ig fusion protein; not shown: Fc portion, not described
As to B14, the binding result in [17] is given as “no binding”.

For the origin of these results see US20190127468A1 (ONCOIMMUNE, published 2019).
